T1: Construct A (residues 40–528) of B. bifidum lacto-N-biosidase, GH20b-GH20-α (Bifidobacterium bifidum (strain DSM …, UniProt B3TLD6))
T1 chain: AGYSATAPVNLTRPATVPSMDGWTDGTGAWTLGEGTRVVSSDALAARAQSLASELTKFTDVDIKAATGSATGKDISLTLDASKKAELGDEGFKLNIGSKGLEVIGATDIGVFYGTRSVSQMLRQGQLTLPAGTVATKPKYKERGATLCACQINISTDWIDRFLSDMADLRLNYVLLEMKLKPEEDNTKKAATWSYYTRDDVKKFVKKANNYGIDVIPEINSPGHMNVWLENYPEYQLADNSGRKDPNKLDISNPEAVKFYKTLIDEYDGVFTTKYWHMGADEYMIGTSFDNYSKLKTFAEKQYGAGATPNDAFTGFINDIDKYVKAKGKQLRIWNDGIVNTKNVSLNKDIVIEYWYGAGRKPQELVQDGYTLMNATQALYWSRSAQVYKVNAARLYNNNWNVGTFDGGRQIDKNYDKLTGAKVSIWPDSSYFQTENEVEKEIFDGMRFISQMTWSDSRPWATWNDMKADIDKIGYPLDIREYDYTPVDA

B1: Construct A (residues 40–528) of B. bifidum lacto-N-biosidase, GH20b-GH20-α (domain or fragment, Bifidobacterium bifidum, UniProt B3TLD6 40-528, looked up)
chain: T1 chain
notes: Lacto-N-biosidase (LnbB), Bifidobacterium bifidum, residues 40-528 (GH20b and GH20 domains with the extra α-helix); synthetic codon-optimised gene in pET28a+ (NdeI/Bpu1102); Mainly dimeric in solution by gel filtration; theoretical mass 57 kDa; also called GH20b-GH20-α construct; source: E. coli BL21 (DE3) star, purified (Ni2+ HiTrap chelating column, Superdex 200)
B2: Construct F (546–776) of B. bifidum lacto-N-biosidase, the single lectin domain (domain or fragment, Bifidobacterium bifidum, UniProt B3TLD6 546-776, looked up)
chain: LITTPDGYYQMKDTVSGKCLALFTGSKHLDVVTQVGARPELRNCADVSVGQDQRNTANERNTQKWQIRADKDGKYTISPALTQQRLAIATGNEQNIDLETHRPAAGTVAQFPADLVSDNALFTLTGHMGMSATVDSKTVNPASPSKITVKVRAASNANTGDVTVTPVVPEGWEIKPGSVSLKSIPAGKAAIAYFNVVNTTGTGDATVQFKLTNTKTGEELGTTSVALTGSL

Legend:
[1] = target: the molecule itself; assay: SEC; single purified proteins on XK16/60 Superdex 200 in buffer A (Na2HPO4 20 mM, NaCl 150 mM, pH 7.5)
[2] = target: B1; assay: cell-based or functional assay
[3] = target: T1, Construct A (residues 40–528) of B. …; assay: SEC co-elution with SDS-PAGE, plus activity complementation assay

hydrolytic activity on p-nitrophenyl β-lacto-N-bioside of 50 nM construct A with 25 nM-500 nM construct F (pH 4.5, 30°C), relative to the full length enzyme; levels off at a molar ratio of 1:6 [2] | binding result [3] | Binder | stoichiometry N [1]
 |  | B1 | 2
11% | binds | B2 | 

From publication PMC4449183, “Structural-Functional Analysis Reveals a Specific Domain Organization in Family GH20 Hexosaminidases” (PLoS ONE, 2015)
